Data on 1 substance can be found in article PMC4625125.

This data set deals with ScbR2. In words: EMSA. The conditions noted are these: 'nearly 1 uM'; exact value in figure; not stated; modified EMSA as previously described (ref 23). A general note: In EMSA bound probe runs differently from free probe, usually more slowly.

A word on the Kd: it is the equilibrium constant for the complex coming apart. PkasO1 showed a Kd of 1000 nM.
